Measured values reported in patent publication US20170258835A1.
One block for each substance: values may come before it.

Legend:
CD19 = CD19 (UniProt P15391); assay: cell-based or functional assay
EGFRviii = EGFRviii (UniProt P00533)
HLA-A2/NY-ESO-1 = assay: cell-based or functional assay

CD19, sequence (P15391 20-556 limits assumed): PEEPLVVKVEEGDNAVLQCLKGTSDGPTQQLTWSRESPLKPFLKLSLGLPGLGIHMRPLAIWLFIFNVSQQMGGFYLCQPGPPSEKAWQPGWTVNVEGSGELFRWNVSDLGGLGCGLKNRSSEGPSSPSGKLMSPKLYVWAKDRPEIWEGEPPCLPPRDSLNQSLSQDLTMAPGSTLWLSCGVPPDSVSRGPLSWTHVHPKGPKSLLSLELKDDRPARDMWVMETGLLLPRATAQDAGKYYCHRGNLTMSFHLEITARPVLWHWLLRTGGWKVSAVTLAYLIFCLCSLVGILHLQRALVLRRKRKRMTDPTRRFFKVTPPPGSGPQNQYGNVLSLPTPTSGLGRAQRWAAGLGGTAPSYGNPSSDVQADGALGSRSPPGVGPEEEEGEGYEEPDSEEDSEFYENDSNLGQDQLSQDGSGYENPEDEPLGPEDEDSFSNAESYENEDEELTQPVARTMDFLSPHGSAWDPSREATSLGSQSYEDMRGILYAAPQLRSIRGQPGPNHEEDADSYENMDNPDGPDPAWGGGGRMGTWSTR

CD107a up-regulation, stimulated with K562-CD19 (CD19): 81% | IFN-gamma ELISA; lowest dose of CD19 mRNA electroporated into K562 that was recognized (CD19): 0.001 µg
Substance: Blinatumomab (secreted by T cells electroporated with Blinatumomab Bis-RNA) (bispecific antibody)

CD107a+ share of CD8+ T cells after stimulation with K562-EGFRvIII (EGFRviii): 51.8%
Substance: MR1-BBZ

CD8/CD107a double positive cells, stimulated with Nalm6-ESO (Affi-epsilon co-electroporated, EP3 to EP6) (HLA-A2/NY-ESO-1): 49.5 to 53.3%
Substance: NY-ESO-1 (1G4) TCR alpha and beta
